Results reported in patent US20190233493A1 (Sanofi, published 2019).
*1 amine or outer side, *2 acyl side, *3 side chain or, on linkers, in order; H or OH if unused. Primed or numbered codes have the meaning given here. Side-chain parts run from the residue outwards. [ ]: non-standard residue; d: D form. The star is where a group is joined. PEG8′ = 2-[2-[2-[2-[2-[2-[2-[2-[2-aminoethoxy]ethoxy]ethoxy]ethoxy]ethoxy]ethoxy]ethoxy]ethoxy]ethoxy]propanoyl; TTDS″ = 4-[3-[2-[2-(3-aminopropoxy)ethoxy]ethoxy]propylamino]-4-oxo-butanoyl; TtdDga = O=C(COCC(=O)[*:2])NCCCOCCOCCOCCCN[*:1]; γGlu = O=C(O)[C@H](CCC(=O)[*:2])N[*:1]; Pentadecanoyl = CCCCCCCCCCCCCCC(=O)*; Stearoyl = CCCCCCCCCCCCCCCCCC(=O)*; Palmitoyl = CCCCCCCCCCCCCCCC(=O)*; Myristoyl = CCCCCCCCCCCCCC(=O)*; αMeK = C[C@](N)(CCCCN)C(=O)O; Nle = CCCC[C@H](N)C(=O)O; PEG2′ = PEG2 spacer unit; Aib = CC(C)(N)C(=O)O

B1: peptide of SEQ ID NO: 19 (peptide)
peptide: Ac-LEGREKVRAK(Ac)I[Aib][Aib]EG[Nle]STWS[Aib]RKK(Ac)[TtdDga][TtdDga]K([γGlu-γGlu-γGlu-Stearoyl])-NH2
SMILES: CCCCCCCCCCCCCCCCCC(=O)N[C@@H](CCC(=O)N[C@@H](CCC(=O)N[C@@H](CCC(=O)NCCCC[C@H](NC(=O)COCC(=O)NCCCOCCOCCOCCCNC(=O)COCC(=O)NCCCOCCOCCOCCCNC(=O)[C@H](CCCCNC(C)=O)NC(=O)[C@H](CCCCN)NC(=O)[C@H](CCCNC(=N)N)NC(=O)C(C)(C)NC(=O)[C@H](CO)NC(=O)[C@H](Cc1c[nH]c2ccccc12)NC(=O)[C@@H](NC(=O)[C@H](CO)NC(=O)[C@H](CCCC)NC(=O)CNC(=O)[C@H](CCC(=O)O)NC(=O)C(C)(C)NC(=O)C(C)(C)NC(=O)[C@@H](NC(=O)[C@H](CCCCNC(C)=O)NC(=O)[C@H](C)NC(=O)[C@H](CCCNC(=N)N)NC(=O)[C@@H](NC(=O)[C@H](CCCCN)NC(=O)[C@H](CCC(=O)O)NC(=O)[C@H](CCCNC(=N)N)NC(=O)CNC(=O)[C@H](CCC(=O)O)NC(=O)[C@H](CC(C)C)NC(C)=O)C(C)C)[C@@H](C)CC)[C@@H](C)O)C(N)=O)C(=O)O)C(=O)O)C(=O)O
B2: peptide of SEQ ID NO: 176 (peptide)
peptide: Ac-LEGREKVRAK(Ac)I[Aib][Aib]EGQSTWS[Aib]RKK(Ac)[TtdDga]K([γGlu-γGlu-γGlu-Palmitoyl])-NH2
SMILES: CCCCCCCCCCCCCCCC(=O)N[C@@H](CCC(=O)N[C@@H](CCC(=O)N[C@@H](CCC(=O)NCCCC[C@H](NC(=O)COCC(=O)NCCCOCCOCCOCCCNC(=O)[C@H](CCCCNC(C)=O)NC(=O)[C@H](CCCCN)NC(=O)[C@H](CCCNC(=N)N)NC(=O)C(C)(C)NC(=O)[C@H](CO)NC(=O)[C@H](Cc1c[nH]c2ccccc12)NC(=O)[C@@H](NC(=O)[C@H](CO)NC(=O)[C@H](CCC(N)=O)NC(=O)CNC(=O)[C@H](CCC(=O)O)NC(=O)C(C)(C)NC(=O)C(C)(C)NC(=O)[C@@H](NC(=O)[C@H](CCCCNC(C)=O)NC(=O)[C@H](C)NC(=O)[C@H](CCCNC(=N)N)NC(=O)[C@@H](NC(=O)[C@H](CCCCN)NC(=O)[C@H](CCC(=O)O)NC(=O)[C@H](CCCNC(=N)N)NC(=O)CNC(=O)[C@H](CCC(=O)O)NC(=O)[C@H](CC(C)C)NC(C)=O)C(C)C)[C@@H](C)CC)[C@@H](C)O)C(N)=O)C(=O)O)C(=O)O)C(=O)O
B3: peptide of SEQ ID NO: 175 (peptide)
peptide: Ac-LEGREKVRAK(Ac)I[Aib][Aib]EG[Nle]STWS[Aib]RKK(Ac)[TtdDga]K([γGlu-γGlu-γGlu-Palmitoyl])-NH2
SMILES: CCCCCCCCCCCCCCCC(=O)N[C@@H](CCC(=O)N[C@@H](CCC(=O)N[C@@H](CCC(=O)NCCCC[C@H](NC(=O)COCC(=O)NCCCOCCOCCOCCCNC(=O)[C@H](CCCCNC(C)=O)NC(=O)[C@H](CCCCN)NC(=O)[C@H](CCCNC(=N)N)NC(=O)C(C)(C)NC(=O)[C@H](CO)NC(=O)[C@H](Cc1c[nH]c2ccccc12)NC(=O)[C@@H](NC(=O)[C@H](CO)NC(=O)[C@H](CCCC)NC(=O)CNC(=O)[C@H](CCC(=O)O)NC(=O)C(C)(C)NC(=O)C(C)(C)NC(=O)[C@@H](NC(=O)[C@H](CCCCNC(C)=O)NC(=O)[C@H](C)NC(=O)[C@H](CCCNC(=N)N)NC(=O)[C@@H](NC(=O)[C@H](CCCCN)NC(=O)[C@H](CCC(=O)O)NC(=O)[C@H](CCCNC(=N)N)NC(=O)CNC(=O)[C@H](CCC(=O)O)NC(=O)[C@H](CC(C)C)NC(C)=O)C(C)C)[C@@H](C)CC)[C@@H](C)O)C(N)=O)C(=O)O)C(=O)O)C(=O)O
B4: peptide of SEQ ID NO: 18 (peptide)
peptide: Ac-LEGREKVRAK(Ac)I[Aib][Aib]EG[Nle]STWS[Aib]RKK(Ac)[TtdDga]K([γGlu-γGlu-γGlu-Stearoyl])-NH2
SMILES: CCCCCCCCCCCCCCCCCC(=O)N[C@@H](CCC(=O)N[C@@H](CCC(=O)N[C@@H](CCC(=O)NCCCC[C@H](NC(=O)COCC(=O)NCCCOCCOCCOCCCNC(=O)[C@H](CCCCNC(C)=O)NC(=O)[C@H](CCCCN)NC(=O)[C@H](CCCNC(=N)N)NC(=O)C(C)(C)NC(=O)[C@H](CO)NC(=O)[C@H](Cc1c[nH]c2ccccc12)NC(=O)[C@@H](NC(=O)[C@H](CO)NC(=O)[C@H](CCCC)NC(=O)CNC(=O)[C@H](CCC(=O)O)NC(=O)C(C)(C)NC(=O)C(C)(C)NC(=O)[C@@H](NC(=O)[C@H](CCCCNC(C)=O)NC(=O)[C@H](C)NC(=O)[C@H](CCCNC(=N)N)NC(=O)[C@@H](NC(=O)[C@H](CCCCN)NC(=O)[C@H](CCC(=O)O)NC(=O)[C@H](CCCNC(=N)N)NC(=O)CNC(=O)[C@H](CCC(=O)O)NC(=O)[C@H](CC(C)C)NC(C)=O)C(C)C)[C@@H](C)CC)[C@@H](C)O)C(N)=O)C(=O)O)C(=O)O)C(=O)O
B5: peptide of SEQ ID NO: 177 (peptide)
peptide: Ac-LEGREKVRAQI[Aib][Aib]EGQSTWS[Aib]RKK(Ac)[TtdDga][TtdDga]K([γGlu-γGlu-γGlu-Palmitoyl])-NH2
SMILES: CCCCCCCCCCCCCCCC(=O)N[C@@H](CCC(=O)N[C@@H](CCC(=O)N[C@@H](CCC(=O)NCCCC[C@H](NC(=O)COCC(=O)NCCCOCCOCCOCCCNC(=O)COCC(=O)NCCCOCCOCCOCCCNC(=O)[C@H](CCCCNC(C)=O)NC(=O)[C@H](CCCCN)NC(=O)[C@H](CCCNC(=N)N)NC(=O)C(C)(C)NC(=O)[C@H](CO)NC(=O)[C@H](Cc1c[nH]c2ccccc12)NC(=O)[C@@H](NC(=O)[C@H](CO)NC(=O)[C@H](CCC(N)=O)NC(=O)CNC(=O)[C@H](CCC(=O)O)NC(=O)C(C)(C)NC(=O)C(C)(C)NC(=O)[C@@H](NC(=O)[C@H](CCC(N)=O)NC(=O)[C@H](C)NC(=O)[C@H](CCCNC(=N)N)NC(=O)[C@@H](NC(=O)[C@H](CCCCN)NC(=O)[C@H](CCC(=O)O)NC(=O)[C@H](CCCNC(=N)N)NC(=O)CNC(=O)[C@H](CCC(=O)O)NC(=O)[C@H](CC(C)C)NC(C)=O)C(C)C)[C@@H](C)CC)[C@@H](C)O)C(N)=O)C(=O)O)C(=O)O)C(=O)O

The binders below were run against T1, RXFP1 receptor (UniProt Q9HBX9 1-757, limits assumed) (assay: cell-based or functional assay).
T1 sequence (looked up): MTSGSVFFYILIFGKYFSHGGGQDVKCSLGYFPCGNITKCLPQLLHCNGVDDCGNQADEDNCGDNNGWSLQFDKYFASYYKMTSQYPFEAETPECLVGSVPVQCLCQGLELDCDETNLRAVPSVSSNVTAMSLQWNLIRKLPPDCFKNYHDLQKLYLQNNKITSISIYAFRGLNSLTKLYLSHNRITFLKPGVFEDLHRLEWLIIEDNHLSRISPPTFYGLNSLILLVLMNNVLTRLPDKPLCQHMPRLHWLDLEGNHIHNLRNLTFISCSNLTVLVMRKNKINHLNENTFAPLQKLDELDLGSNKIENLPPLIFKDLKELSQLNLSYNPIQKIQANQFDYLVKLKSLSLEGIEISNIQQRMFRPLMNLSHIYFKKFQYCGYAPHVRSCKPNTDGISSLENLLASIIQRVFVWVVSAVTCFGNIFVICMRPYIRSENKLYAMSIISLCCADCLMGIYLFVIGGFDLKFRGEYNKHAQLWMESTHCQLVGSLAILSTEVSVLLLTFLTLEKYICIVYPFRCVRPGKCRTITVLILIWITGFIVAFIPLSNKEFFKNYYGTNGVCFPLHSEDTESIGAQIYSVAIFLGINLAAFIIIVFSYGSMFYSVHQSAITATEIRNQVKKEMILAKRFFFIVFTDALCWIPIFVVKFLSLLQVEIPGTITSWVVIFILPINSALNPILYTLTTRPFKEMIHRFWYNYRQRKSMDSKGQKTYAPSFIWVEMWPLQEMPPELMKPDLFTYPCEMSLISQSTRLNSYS
In the case of Ac-LEGREKVRAK(Ac)I[Aib][Aib]EGQSTYS[Aib]RKK(Ac)[PEG2′][PEG2′][PEG2′]K([γGlu-γGlu-γGlu-Palmitoyl])-NH2 [peptide of SEQ ID NO: 179], the “EC50 (nM), OVCAR 5 cells (cAMP)” value is reported as 19.9 nM and the “EMax, OVCAR 5 cells (cAMP)” value is reported as 80%. B1 was tested, and the “EC50 (nM), OVCAR 5 cells (cAMP)” value was 0.15 nM and the “EMax, OVCAR 5 cells (cAMP)” value was 96%. B2 was tested, and the “EC50 (nM), OVCAR 5 cells (cAMP)” value was 3 nM and the “EMax, OVCAR 5 cells (cAMP)” value was 90%. With B3 the “EC50 (nM), OVCAR 5 cells (cAMP)” value was 2.21 nM and the “EMax, OVCAR 5 cells (cAMP)” value was 87%. With B4 the “EC50 (nM), OVCAR 5 cells (cAMP)” value was 0.41 nM and the “EMax, OVCAR 5 cells (cAMP)” value was 83%. With Ac-LEGREKVRAK(Ac)I[Aib][Aib]EG[Nle]STWS[Aib]RKK(Ac)[PEG8′]K([γGlu-γGlu-γGlu-Palmitoyl])-NH2 [peptide of SEQ ID NO: 181] the “EC50 (nM), OVCAR 5 cells (cAMP)” value was 1.63 nM and the “EMax, OVCAR 5 cells (cAMP)” value was 79%. Ac-LEGREKVRAK(Ac)I[Aib][Aib]EGQSTFS[αMeK]RAK(Ac)[PEG2′][PEG2′][PEG2′][PEG2′][γGlu][γGlu]K([γGlu-γGlu-Pentadecanoyl])-NH2 [peptide of SEQ ID NO: 186] was tested, and the “EC50 (nM), OVCAR 5 cells (cAMP)” value was 0.18 nM and the “EMax, OVCAR 5 cells (cAMP)” value was 100%. Ac-LEGREKVRAK(Ac)I[Aib][Aib]EG[Nle]STWS[Aib]RKK(Ac)K([PEG2′-PEG2′-PEG2′-γGlu-γGlu-γGlu-Myristoyl])-NH2 [peptide of SEQ ID NO: 178] was tested, and the “EC50 (nM), OVCAR 5 cells (cAMP)” value was 17.6 nM and the “EMax, OVCAR 5 cells (cAMP)” value was 93%. In the case of Ac-LEGREKVRAK(Ac)I[Aib][Aib]EG[Nle]STFS[αMeK]RAK(Ac)K([TTDS″-TTDS″-TTDS″-γGlu-γGlu-γGlu-Palmitoyl])-NH2 [peptide of SEQ ID NO: 183], the “EC50 (nM), OVCAR 5 cells (cAMP)” value is reported as 0.08 nM and the “EMax, OVCAR 5 cells (cAMP)” value is reported as 94%. In the case of Ac-LEGREKVRAK(Ac)I[Aib][Aib]EGQSTWS[Aib]RKK(Ac)K([PEG2′-PEG2′-PEG2′-PEG2′-γGlu-γGlu-γGlu-γGlu-Stearoyl])-NH2 [peptide of SEQ ID NO: 180], the “EC50 (nM), OVCAR 5 cells (cAMP)” value is reported as 1.18 nM and the “EMax, OVCAR 5 cells (cAMP)” value is reported as 84%. In the case of Ac-LEGREKVRAK(Ac)I[Aib][Aib]EGQSTFS[αMeK]RAK(Ac)[PEG2′][PEG2′][PEG2′][PEG2′][γGlu][γGlu]K([γGlu-γGlu-Palmitoyl])-NH2 [peptide of SEQ ID NO: 185], the “EC50 (nM), OVCAR 5 cells (cAMP)” value is reported as 0.05 nM and the “EMax, OVCAR 5 cells (cAMP)” value is reported as 100%. For Ac-LEGREKVRAK(Ac)I[Aib][Aib]EGQSTFS[αMeK]RAK(Ac)[PEG2′][PEG2′][PEG2′][PEG2′]K([γGlu-γGlu-γGlu-γGlu-Pentadecanoyl])-NH2 [peptide of SEQ ID NO: 182], the “EC50 (nM), OVCAR 5 cells (cAMP)” value was 0.19 nM and the “EMax, OVCAR 5 cells (cAMP)” value was 99%. With B5 the “EC50 (nM), OVCAR 5 cells (cAMP)” value was 1.5 nM and the “EMax, OVCAR 5 cells (cAMP)” value was 91%. In the case of Ac-LEGREKVRAQI[Aib][Aib]EG[Nle]STWS[Aib]RKKK([PEG2′-PEG2′-PEG2′-γGlu-γGlu-γGlu-Stearoyl])-NH2 [peptide of SEQ ID NO: 174], the “EMax, OVCAR 5 cells (cAMP)” value is reported as 88%.
